This is an account of results in the FLAb antibody collection (doi:10.1101/2023.12.08.570889).

The chains are these.
B1: unnamed (protein)
chain 1: QMQLVESGGGVVQPGRSLRLSCAASGFTFSTYAMHWVRQAPGKGLEWVAVIWYDGSNKHYADSVKGRFTITRDNSKNTLNLQMNSLRAEDTAVYYCARAPRYDEYYEAFDVWGQGTMVTVSS
chain 2: SYVLTQPPSVSVAPGQTARITCGGNNLGSKSVHWYQQKPGQAPVLVVYDDSDRPSWIPERFSGSNSGNTATLTISRGEAGDEADYYCQVWDSSSDHVVFGGGTKLTVL
B2: unnamed (protein)
chain 1: QMQLVESGGGVVQPGRSLRLSCAASGFTFSSFAMHWVRQAPGKGLEWVAVIWYDGSNKHYADSVKGRFTITRDNSKNTLNLQMNSLRAEDTAVYYCARAPRYDEYYEAFDVWGQGTMVTVSS
chain 2: SYVLTQPPSVSVAPGQTARITCGGNNLGSKSVHWYQQKPGQAPVLVVYDDSDRPSWIPERFSGSNSGNTATLTISRGEAGDEADYYCQVWDSSSDHVVFGGGTKLTVL
B3: unnamed (protein)
chain 1: QMQLVESGGGVVQPGRSLRLSCAASGFTFSTFAMHWVRQAPGKGLEWVAVIWYDGSNKHYADSVKGRFTITRDNSKNTLNLQMNSLRAEDTAVYYCARAPRYDWYLEAFDVWGQGTMVTVSS
chain 2: SYVLTQPPSVSVAPGQTARITCGGNNLGSKSVHWYQQKPGQAPVLVVYDDSDRPSWIPERFSGSNSGNTATLTISRGEAGDEADYYCQVWDSSSDHVVFGGGTKLTVL
B4: unnamed (protein)
chain 1: QMQLVESGGGVVQPGRSLRLSCAASGFTFSTYAMHWVRQAPGKGLEWVAVIWYDGSNKHYADSVKGRFTITRDNSKNTLNLQMNSLRAEDTAVYYCARAPRYDEDYEAFDVWGQGTMVTVSS
chain 2: SYVLTQPPSVSVAPGQTARITCGGNNLGSKSVHWYQQKPGQAPVLVVYDDSDRPSWIPERFSGSNSGNTATLTISRGEAGDEADYYCQVWDSSSDHVVFGGGTKLTVL
B5: unnamed (protein)
chain 1: QMQLVESGGGVVQPGRSLRLSCAASGFTFSTYAMHWVRQAPGKGLEWVAVIWYDGSNKHYADSVKGRFTITRDNSKNTLNLQMNSLRAEDTAVYYCARAPRYDDYLEAFDVWGQGTMVTVSS
chain 2: SYVLTQPPSVSVAPGQTARITCGGNNLGSKSVHWYQQKPGQAPVLVVYDDSDRPSWIPERFSGSNSGNTATLTISRGEAGDEADYYCQVWDSSSDHVVFGGGTKLTVL
B6: unnamed (protein)
chain 1: QMQLVESGGGVVQPGRSLRLSCAASGFTFSTFAMHWVRQAPGKGLEWVAVIWYDGSNKHYADSVKGRFTITRDNSKNTLNLQMNSLRAEDTAVYYCARAPRYDEEYEAFDVWGQGTMVTVSS
chain 2: SYVLTQPPSVSVAPGQTARITCGGNNLGSKSVHWYQQKPGQAPVLVVYDDSDRPSWIPERFSGSNSGNTATLTISRGEAGDEADYYCQVWDSSSDHVVFGGGTKLTVL
B7: unnamed (protein)
chain 1: QMQLVESGGGVVQPGRSLRLSCAASGFTFSTFAMHWVRQAPGKGLEWVAVIWYDGSNKHYADSVKGRFTITRDNSKNTLNLQMNSLRAEDTAVYYCARAPRYDEDYEAFDVWGQGTMVTVSS
chain 2: SYVLTQPPSVSVAPGQTARITCGGNNLGSKSVHWYQQKPGQAPVLVVYDDSDRPSWIPERFSGSNSGNTATLTISRGEAGDEADYYCQVWDSSSDHVVFGGGTKLTVL
B8: unnamed (protein)
chain 1: QMQLVESGGGVVQPGRSLRLSCAASGFTFSSFAMHWVRQAPGKGLEWVAVIWYDGSNKHYADSVKGRFTITRDNSKNTLNLQMNSLRAEDTAVYYCARAPRYDDYYEAFDVWGQGTMVTVSS
chain 2: SYVLTQPPSVSVAPGQTARITCGGNNLGSKSVHWYQQKPGQAPVLVVYDDSDRPSWIPERFSGSNSGNTATLTISRGEAGDEADYYCQVWDSSSDHVVFGGGTKLTVL
B9: unnamed (protein)
chain 1: QMQLVESGGGVVQPGRSLRLSCAASGFTFSTYAMHWVRQAPGKGLEWVAVIWYDGSNKHYADSVKGRFTITRDNSKNTLNLQMNSLRAEDTAVYYCARSPRYDEYYEAFDVWGQGTMVTVSS
chain 2: SYVLTQPPSVSVAPGQTARITCGGNNLGSKSVHWYQQKPGQAPVLVVYDDSDRPSWIPERFSGSNSGNTATLTISRGEAGDEADYYCQVWDSSSDHVVFGGGTKLTVL
B10: unnamed (protein)
chain 1: QMQLVESGGGVVQPGRSLRLSCAASGFTFSTFAMHWVRQAPGKGLEWVAVIWYDGSNKHYADSVKGRFTITRDNSKNTLNLQMNSLRAEDTAVYYCARAPRYDDEYEAFDVWGQGTMVTVSS
chain 2: SYVLTQPPSVSVAPGQTARITCGGNNLGSKSVHWYQQKPGQAPVLVVYDDSDRPSWIPERFSGSNSGNTATLTISRGEAGDEADYYCQVWDSSSDHVVFGGGTKLTVL
B11: unnamed (protein)
chain 1: QMQLVESGGGVVQPGRSLRLSCAASGFTFSTFAMHWVRQAPGKGLEWVAVIWYDGSNKHYADSVKGRFTITRDNSKNTLNLQMNSLRAEDTAVYYCARAPRYYYYYEAFDVWGQGTMVTVSS
chain 2: SYVLTQPPSVSVAPGQTARITCGGNNLGSKSVHWYQQKPGQAPVLVVYDDSDRPSWIPERFSGSNSGNTATLTISRGEAGDEADYYCQVWDSSSDHVVFGGGTKLTVL
B12: unnamed (protein)
chain 1: QMQLVESGGGVVQPGRSLRLSCAASGFTFSSYAMHWVRQAPGKGLEWVAVIWYDGSNKHYADSVKGRFTITRDNSKNTLNLQMNSLRAEDTAVYYCARAPRYDDYYEAFDVWGQGTMVTVSS
chain 2: SYVLTQPPSVSVAPGQTARITCGGNNLGSKSVHWYQQKPGQAPVLVVYDDSDRPSWIPERFSGSNSGNTATLTISRGEAGDEADYYCQVWDSSSDHVVFGGGTKLTVL
B13: unnamed (protein)
chain 1: QMQLVESGGGVVQPGRSLRLSCAASGFTFSTFAMHWVRQAPGKGLEWVAVIWYDGSNKHYADSVKGRFTITRDNSKNTLNLQMNSLRAEDTAVYYCARSPRYDDYYEAFDVWGQGTMVTVSS
chain 2: SYVLTQPPSVSVAPGQTARITCGGNNLGSKSVHWYQQKPGQAPVLVVYDDSDRPSWIPERFSGSNSGNTATLTISRGEAGDEADYYCQVWDSSSDHVVFGGGTKLTVL
B14: unnamed (protein)
chain 1: QMQLVESGGGVVQPGRSLRLSCAASGFTFSTYAMHWVRQAPGKGLEWVAVIWYDGSNKHYADSVKGRFTITRDNSKNTLNLQMNSLRAEDTAVYYCARAPRYDDLYEAFDVWGQGTMVTVSS
chain 2: SYVLTQPPSVSVAPGQTARITCGGNNLGSKSVHWYQQKPGQAPVLVVYDDSDRPSWIPERFSGSNSGNTATLTISRGEAGDEADYYCQVWDSSSDHVVFGGGTKLTVL
B15: unnamed (protein)
chain 1: QMQLVESGGGVVQPGRSLRLSCAASGFTFSTFAMHWVRQAPGKGLEWVAVIWYDGSNKHYADSVKGRFTITRDNSKNTLNLQMNSLRAEDTAVYYCARAPRYDDRYEAFDVWGQGTMVTVSS
chain 2: SYVLTQPPSVSVAPGQTARITCGGNNLGSKSVHWYQQKPGQAPVLVVYDDSDRPSWIPERFSGSNSGNTATLTISRGEAGDEADYYCQVWDSSSDHVVFGGGTKLTVL
B16: unnamed (protein)
chain 1: QMQLVESGGGVVQPGRSLRLSCAASGFTFSTFAMHWVRQAPGKGLEWVAVIWYDGSNKHYADSVKGRFTITRDNSKNTLNLQMNSLRAEDTAVYYCARAPRYYDYWEAFDVWGQGTMVTVSS
chain 2: SYVLTQPPSVSVAPGQTARITCGGNNLGSKSVHWYQQKPGQAPVLVVYDDSDRPSWIPERFSGSNSGNTATLTISRGEAGDEADYYCQVWDSSSDHVVFGGGTKLTVL
B17: unnamed (protein)
chain 1: QMQLVESGGGVVQPGRSLRLSCAASGFTFSTYAMHWVRQAPGKGLEWVAVIWYDGSNKHYADSVKGRFTITRDNSKNTLNLQMNSLRAEDTAVYYCARAPRYDYYWEAFDVWGQGTMVTVSS
chain 2: SYVLTQPPSVSVAPGQTARITCGGNNLGSKSVHWYQQKPGQAPVLVVYDDSDRPSWIPERFSGSNSGNTATLTISRGEAGDEADYYCQVWDSSSDHVVFGGGTKLTVL
B18: unnamed (protein)
chain 1: QMQLVESGGGVVQPGRSLRLSCAASGFTFSTFAMHWVRQAPGKGLEWVAVIWYDGSNKHYADSVKGRFTITRDNSKNTLNLQMNSLRAEDTAVYYCARAPRYDDYLEAFDVWGQGTMVTVSS
chain 2: SYVLTQPPSVSVAPGQTARITCGGNNLGSKSVHWYQQKPGQAPVLVVYDDSDRPSWIPERFSGSNSGNTATLTISRGEAGDEADYYCQVWDSSSDHVVFGGGTKLTVL
B19: unnamed (protein)
chain 1: QMQLVESGGGVVQPGRSLRLSCAASGFTFSTYAMHWVRQAPGKGLEWVAVIWYDGSNKHYADSVKGRFTITRDNSKNTLNLQMNSLRAEDTAVYYCARAPRYDEYVEAFDVWGQGTMVTVSS
chain 2: SYVLTQPPSVSVAPGQTARITCGGNNLGSKSVHWYQQKPGQAPVLVVYDDSDRPSWIPERFSGSNSGNTATLTISRGEAGDEADYYCQVWDSSSDHVVFGGGTKLTVL

The assay has as its target TSLP, Q969D9. Description: Kd (SPR).
B1 yielded a Kd of 224 nM. This lies in the sub-micromolar range.

For the molecule B2, the Kd is 186 nM.

B3 gave a Kd of 157 nM.

In turn, B4 gave a Kd of 184 nM.

As for B5, the Kd came to 152 nM.

For B6, the Kd came out at 240 nM.

B7: the Kd turned out to be 148 nM.

Molecule B8 yielded a Kd of 136 nM.

B9: the Kd is 219 nM.

In the case of B10, the Kd came to 180 nM.

As for B11, the Kd was found to be 208 nM.

With B12, the Kd was 153 nM.

As to B13, the Kd was determined as 172 nM.

Turning to B14, the Kd is 188 nM.

B15: the Kd is 490 nM.

As to B16, the Kd stood at 221 nM.

Molecule B17 registered a Kd of 151 nM.

Molecule B18 gave a Kd of 159 nM. The Kd values of the last two molecules are within 1.5-fold of each other.

B19 registered a Kd of 195 nM.

One may read the Kd as the constant that tells how readily two partners part at equilibrium.
